Test results from PMC8079166 (Biochemical Journal, 2021).

B4: HIV-1 LAI Nef ΔNΔL (residues 60–158;174–205) (domain or fragment)
chain: AQEEEEVGFPVTPQVPLRPMTYKAAVDLSHFLKEKGGLEGLIHSQRRQDILDLWIYHTQGYFPDWQNYTPGPGVRYPLTFGWCYKLVPVEPDKVEEANKDDPEREVLEWRFDSRLAFHHVARELHPEYFKN
B8: HIV-1 LAI Nef WLΔN (residues 56–205) (domain or fragment)
chain: AWLEAQEEEEVGFPVTPQVPLRPMTYKAAVDLSHFLKEKGGLEGLIHSQRRQDILDLWIYHTQGYFPDWQNYTPGPGVRYPLTFGWCYKLVPVEPDKVEEANKGENTSLLHPVSLHGMDDPEREVLEWRFDSRLAFHHVARELHPEYFKN

How the values were obtained:
[1] = molecular target: B8; assay: ITC
[2] = molecular target: T1, HIV-1 LAI Nef ΔN (residues 60–205) (HIV-1, LAI isolate, UniProt P03406 60-205); assay: ITC
[3] = molecular target: HIV-1 LAI Nef, full-length (HIV-1, LAI isolate, UniProt P03406); assay: ITC
[4] = molecular target: HIV-1 SF2 Nef, full-length (HIV-1, SF2 isolate, UniProt P03407); assay: ITC
[5] = molecular target: B4; assay: ITC
[6] = molecular target: B4; assay: MST
[7] = molecular target: B8; assay: MST
[8] = molecular target: T1, HIV-1 LAI Nef ΔN (residues 60–205); assay: MST
[9] = molecular target: p85 subunit of PI3 kinase, nSH2–iSH2–cSH2 fragment (UniProt P27986 322-724); assay: MST

B1: Fyn SH3 domain, wild type (FynR96) (domain or fragment)
chain: not shown
Kd [1]: 50.8 µM
dH [1]: -3.39 kcal/mol
Kd [2]: 83.3 µM
dH [2]: -8.2 kcal/mol
Kd [3]: 58.5 µM
dH [3]: -11 kcal/mol
Kd [4]: 28.7 µM
dH [4]: -14.1 kcal/mol
Kd [5]: 24.3 µM
dH [5]: -3.35 kcal/mol

B2: Fyn SH3 domain R96I (domain or fragment)
chain: not shown
Kd [1]: 7.55 µM
dH [1]: -5.14 kcal/mol
stoichiometry N [1]: 1.01
Kd [2]: 5.06 µM
dH [2]: -9.49 kcal/mol
stoichiometry N [2]: 0.87
Kd [3]: 0.79 µM
dH [3]: -9.73 kcal/mol
stoichiometry N [3]: 0.93
Kd [4]: 0.02 µM
dH [4]: -18.5 kcal/mol
stoichiometry N [4]: 0.98
Kd [5]: 3.86 µM
dH [5]: -8.13 kcal/mol
stoichiometry N [5]: 0.97
Kd [6]: 24 ± 8 µM

B3: Fyn SH3 domain R96W (domain or fragment)
chain: not shown
Kd [1]: 1.45 µM
dH [1]: -7 kcal/mol
stoichiometry N [1]: 0.94
Kd [2]: 1.28 µM
dH [2]: -13.5 kcal/mol
stoichiometry N [2]: 0.9
Kd [3]: 1.43 µM
dH [3]: -12 kcal/mol
stoichiometry N [3]: 0.96
Kd [4]: 0.12 µM
dH [4]: -13.5 kcal/mol
stoichiometry N [4]: 0.91
Kd [5]: 0.78 µM
dH [5]: -11.2 kcal/mol
stoichiometry N [5]: 0.98

SSVVGWPTVRERMRRAEPA [Nef fragment containing H1 (residues 8–26)]
Kd [7]: 1350 ± 219 µM
Kd [8]: 699 ± 252 µM
Kd [6]: 303 ± 50 µM

B4
Kd [9]: 53 ± 3 µM

B5: Nef ΔNΔL preincubated with 50 µM FynR96 SH3 (complex)
chain 1: AQEEEEVGFPVTPQVPLRPMTYKAAVDLSHFLKEKGGLEGLIHSQRRQDILDLWIYHTQGYFPDWQNYTPGPGVRYPLTFGWCYKLVPVEPDKVEEANKDDPEREVLEWRFDSRLAFHHVARELHPEYFKN
chain 2: not shown
modifications: RED-NHS dye label
Kd [9]: 47 ± 8 µM

B6: Nef ΔNΔL preincubated with 50 µM Fyn_(R96I) SH3 (complex)
chain 1: AQEEEEVGFPVTPQVPLRPMTYKAAVDLSHFLKEKGGLEGLIHSQRRQDILDLWIYHTQGYFPDWQNYTPGPGVRYPLTFGWCYKLVPVEPDKVEEANKDDPEREVLEWRFDSRLAFHHVARELHPEYFKN
chain 2: not shown
modifications: RED-NHS dye label
Kd [9]: 96 ± 18 µM

B7: Nef ΔNΔL preincubated with 50 µM Fyn_(R96W) SH3 (complex)
chain 1: AQEEEEVGFPVTPQVPLRPMTYKAAVDLSHFLKEKGGLEGLIHSQRRQDILDLWIYHTQGYFPDWQNYTPGPGVRYPLTFGWCYKLVPVEPDKVEEANKDDPEREVLEWRFDSRLAFHHVARELHPEYFKN
chain 2: not shown
modifications: RED-NHS dye label
Kd [9]: 79 ± 16 µM

B8
Kd [9]: 72 ± 8 µM

B9: Nef WLΔN preincubated with 50 µM FynR96 SH3 (complex)
chain 1: AWLEAQEEEEVGFPVTPQVPLRPMTYKAAVDLSHFLKEKGGLEGLIHSQRRQDILDLWIYHTQGYFPDWQNYTPGPGVRYPLTFGWCYKLVPVEPDKVEEANKGENTSLLHPVSLHGMDDPEREVLEWRFDSRLAFHHVARELHPEYFKN
chain 2: not shown
modifications: RED-NHS dye label
Kd [9]: 104 ± 11 µM

B10: Nef WLΔN preincubated with 50 µM Fyn_(R96I) SH3 (complex)
chain 1: AWLEAQEEEEVGFPVTPQVPLRPMTYKAAVDLSHFLKEKGGLEGLIHSQRRQDILDLWIYHTQGYFPDWQNYTPGPGVRYPLTFGWCYKLVPVEPDKVEEANKGENTSLLHPVSLHGMDDPEREVLEWRFDSRLAFHHVARELHPEYFKN
chain 2: not shown
modifications: RED-NHS dye label
Kd [9]: 107 ± 12 µM

B11: Nef WLΔN preincubated with 50 µM Fyn_(R96W) SH3 (complex)
chain 1: AWLEAQEEEEVGFPVTPQVPLRPMTYKAAVDLSHFLKEKGGLEGLIHSQRRQDILDLWIYHTQGYFPDWQNYTPGPGVRYPLTFGWCYKLVPVEPDKVEEANKGENTSLLHPVSLHGMDDPEREVLEWRFDSRLAFHHVARELHPEYFKN
chain 2: not shown
modifications: RED-NHS dye label
Kd [9]: 108 ± 14 µM

B12: Full-length LAI Nef preincubated with 50 µM FynR96 SH3 (complex)
chain 1: […]
chain 2: not shown
modifications: RED-NHS dye label
Kd [9]: 141 ± 14 µM

B13: Full-length LAI Nef preincubated with 50 µM Fyn_(R96I) SH3 (complex)
chain 1: […]
chain 2: not shown
modifications: RED-NHS dye label
Kd [9]: 135 ± 10 µM

B14: Full-length LAI Nef preincubated with 50 µM Fyn_(R96W) SH3 (complex)
chain 1: […]
chain 2: not shown
modifications: RED-NHS dye label
Kd [9]: 161 ± 17 µM
